Measurements: PMC6703430, “Combining Mutations That Inhibit Two Distinct Steps of the ATP Hydrolysis Cycle Restores Wild-Type Function in the Lipopolysaccharide Transporter and Shows that ATP Binding Triggers Transport” (mBio, 2019)

Molecular target: the molecule itself
Assay: crystal structure; ATP-bound His8-LptB^E163Q, 1.96 Å; hanging drops, reservoir 28% PEG 4000, 100 mM MES pH 6.75, 600 mM NaCl; space group C222(1)

B1: His8-LptB^E163Q (enzyme, E. coli, UniProt P0A9V1 1-241, looked up)
chain: MATLTAKNLAKAYKGRRVVEDVSLTVNSGEIVGLLGPNGAGKTTTFYMVVGIVPRDAGNIIIDDDDISLLPLHARARRGIGYLPQEASIFRRLSVYDNLMAVLQIRDDLSAEQREDRANELMEEFHIEHLRDSMGQSLSGGERRRVEIARALAANPKFILLDQPFAGVDPISVIDIKRIIEHLRDSGLGVLITDHNVRETLAVCERAYIVSQGHLIAHGTPTEILQDEHVKRVYLGEDFRL
notes: catalytically dead E163Q variant; the CTD is fully resolved up to L241, the last residue of LptB; A TEV protease cleavage site stands between the His8 tag and LptB; no TEV cleavage is described; also called His8TEV-LptB(E163Q); His-LptB(E163Q); source: E. coli KRX, pET28b(+)-His8TEV-LptB(E163Q), purified (Ni-NTA, gel filtration on Superdex 200); not shown: His8, N-terminal, kept
stoichiometry N: 2
